How the values were obtained:
[1] = substrate: CC(C)(O/N=C(\C(=O)N[C@@H]1C(=O)N2C(C(=O)[O-])=C(C[n+]3ccccc3)CS[C@H]12)c1csc(N)n1)C(=O)O; assay: (§1) Activity of Klebsiella pneumoniae AH27 CTX-M-15 beta-lactamase
[2] = substrate: CC1(C)S[C@@H]2[C@H](NC(=O)Cc3ccccc3)C(=O)N2[C@H]1C(=O)O; assay: as §1
[3] = substrate: CO/N=C(\C(=O)N[C@@H]1C(=O)N2C(C(=O)O)=C(COC(C)=O)CS[C@H]12)c1csc(N)n1; assay: as §1
[4] = substrate: CO/N=C(\C(=O)N[C@@H]1C(=O)N2C(C(=O)O)=C(COC(N)=O)CS[C@H]12)c1ccco1; assay: as §1
[5] = substrate: C[C@@H](O)[C@H]1C(=O)N2C(C(=O)O)=C(SCCNC=N)C[C@H]12; assay: as §1
[6] = substrate: C[C@@H](O)[C@H]1C(=O)N2C(C(=O)O)=C(S[C@@H]3CN[C@H](C(=O)N(C)C)C3)[C@H](C)[C@H]12; assay: as §1
[7] = substrate: C[C@@H](O)[C@H]1C(=O)N2C(C(=O)O)=C(S[C@@H]3CN[C@H](CNS(N)(=O)=O)C3)[C@H](C)[C@H]12; assay: as §1
[8] = substrate: O=C(Cc1cccs1)N[C@@H]1C(=O)N2C(C(=O)[O-])=C(C[n+]3ccccc3)CS[C@H]12; assay: as §1
[9] = substrate: CC(C)(O/N=C(\C(=O)N[C@@H]1C(=O)N2C(C(=O)[O-])=C(C[n+]3ccccc3)CS[C@H]12)c1csc(N)n1)C(=O)O; assay: (§2) Activity of Klebsiella pneumoniae AH24-270 CTX-M-71 beta-lactamase
[10] = substrate: CC1(C)S[C@@H]2[C@H](NC(=O)Cc3ccccc3)C(=O)N2[C@H]1C(=O)O; assay: as §2
[11] = substrate: CC1(C)S[C@@H]2[C@H](NC(=O)[C@H](N)c3ccc(O)cc3)C(=O)N2[C@H]1C(=O)O; assay: as §2
[12] = substrate: CCN1CCN(C(=O)N[C@@H](C(=O)N[C@@H]2C(=O)N3[C@@H]2SC(C)(C)[C@@H]3C(=O)O)c2ccccc2)C(=O)C1=O; assay: as §2
[13] = substrate: CO/N=C(\C(=O)N[C@@H]1C(=O)N2C(C(=O)O)=C(COC(C)=O)CS[C@H]12)c1csc(N)n1; assay: as §2
[14] = substrate: CO/N=C(\C(=O)N[C@@H]1C(=O)N2C(C(=O)O)=C(COC(N)=O)CS[C@H]12)c1ccco1; assay: as §2
[15] = substrate: C[C@@H](O)[C@H]1C(=O)N2C(C(=O)O)=C(SCCNC=N)C[C@H]12; assay: as §2
[16] = substrate: C[C@@H](O)[C@H]1C(=O)N2C(C(=O)O)=C(S[C@@H]3CN[C@H](C(=O)N(C)C)C3)[C@H](C)[C@H]12; assay: as §2
[17] = substrate: C[C@@H](O)[C@H]1C(=O)N2C(C(=O)O)=C(S[C@@H]3CN[C@H](CNS(N)(=O)=O)C3)[C@H](C)[C@H]12; assay: as §2
[18] = substrate: C[C@@H](O)[C@H]1C(=O)N2C(C(=O)O)=C([C@H]3CCCO3)S[C@H]12; assay: as §2
[19] = substrate: C[C@H]1[C@H](NC(=O)/C(=N\OC(C)(C)C(=O)O)c2csc(N)n2)C(=O)N1S(=O)(=O)O; assay: as §2
[20] = substrate: O=C(Cc1cccs1)N[C@@H]1C(=O)N2C(C(=O)[O-])=C(C[n+]3ccccc3)CS[C@H]12; assay: as §2

B1: Beta-lactamase AH27 CTX-M-15 (Klebsiella pneumoniae), Q2PUH3 (protein)
chain: MVKKSLRQFTLMATATVTLLLGSVPLYAQTADVQQKLAELERQSGGRLGVALINTADNSQILYRADERFAMCSTSKVMAAAAVLKKSESEPNLLNQRVEIKKSDLVNYNPIAEKHVNGTMSLAELSAAALQYSDNVAMNKLIAHVGGPASVTAFARQLGDETFRLDRTEPTLNTAIPGDPRDTTSPRAMAQTLRNLTLGKALGDSQRAQLVTWMKGNTTGAASIQAGLPASWVVGDKTGSGGYGTTNDIAVIWPKDRAPLILVTYFTQPQPKAESRRDVLASAAKIVTDGL
[1]
  Km: 236 µM
  kcat: 4.4 s⁻¹
[2]
  Km: 8.7 µM
  kcat: 47 s⁻¹
[3]
  Km: 26 µM
  kcat: 176 s⁻¹
[4]
  Km: 180 µM
  kcat: 45 s⁻¹
[5]
  kcat: < 0.17 s⁻¹
[6]
  kcat: < 0.004 s⁻¹
[7]
  kcat: < 0.002 s⁻¹
[8]
  Km: 39 µM
  kcat: 188 s⁻¹

B2: Extended spectrum beta-lactamase CTX-M-71 (Klebsiella pneumoniae), C8YUV9 (protein)
chain: MVKKSLRQFTLMATATVTLLLGSVPLYAQTADVQQKLAELERQSGGRLGVALINTADNSQILYRADERFAMCSTSKVMAAAAVLKKSESEPNLLNQRVEIKKSDLVNYNPIAEKHVNGTMSLAELSAAALQYSDNVAMNKLIAHVGGPASVTAFARQLGDETFRLDRTEPTLNTAIPGDPRDTTSPRAMAQTLRNLTLGKALGDSQRAQLVTWMKGNTTGAASIQAGLPASWVVGDKTGSCGYGTTNDIAVIWPKDRAPLILVTYFTQPQPKAESRRDVLASAAKIVTDGL
[9]
  Km: 180 µM
  kcat: 0.69 s⁻¹
[10]
  Km: 4.9 µM
  kcat: 58 s⁻¹
[11]
  Km: 5.2 µM
  kcat: 49 s⁻¹
[12]
  Km: 3.2 µM
  kcat: 27 s⁻¹
[13]
  Km: 130 µM
  kcat: 65 s⁻¹
[14]
  Km: 85 µM
  kcat: 8.8 s⁻¹
[15]
  kcat: < 0.07 s⁻¹
[16]
  kcat: < 0.07 s⁻¹
[17]
  kcat: < 0.05 s⁻¹
[18]
  kcat: < 0.46 s⁻¹
[19]
  Km: 10 µM
  kcat: 0.84 s⁻¹
[20]
  Km: 18 µM
  kcat: 68 s⁻¹

From ChEMBL document CHEMBL1649220, “New variant of CTX-M-type extended-spectrum beta-lactamases, CTX-M-71, with a Gly238Cys substitution in a Klebsiella pneumoniae isolate from Bulgaria” (2009)
